{
  "source": "patent US20110263451A1",
  "about": "“BIOLOGICAL MARKERS PREDICTIVE OF RHEUMATOID ARTHRITIS RESPONSE TO LYMPHOTOXIN ANTAGONISTS” (GENENTECH, INC, priority 2008, published 2011)",
  "key": {"solLTαβ [1]": {"test_system": "solLTαβ", "experiment": "solLTαβ levels in serum of EAE mice (murine LTαβ ECLA)", "type": "in vivo, mouse (SJL/J)", "details": "6 mg/kg s.c. three times a week, FIG. 3", "experimental": "Soluble mouse LTαβ was measured using streptavidin coated 96-Well Microtiter plates (Meso Scale Discovery). Wells were then blocked with 150 uL of PBS containing 5% bovine serum albumin for 1-2 hours. Twenty-five uL per well of 1 μg/ml murine LTβR-Fc-biotin (R&D Systems) diluted in PBS/0.05% Tween® was then incubated with the blocked plate for 30 minutes. The wells were washed 6× with PBS containing 0.05% Tween®-20 (PBS/Tween®) and a titration curve of recombinant mouse LTα1β2 (R&D Systems), controls and unknown test samples diluted in high salt assay diluent (PBS, 0.5% BSA, 0.05% Tween® 20, 10 ppm Proclin, 5 mM EDTA, 0.2% BGG, 0.25% CHAPS+3.5 mM NaCl pH 7.4) were added at 25 μl/well and incubated for 2 hours. […] The plate was washed with wash buffer 6× and 150 μl/well of Read Buffer T (Meso Scale Discovery) diluted 1:2 in H20 was added to the plate. The plate was immediately read on an MA6000 SECTOR™ Imager (Meso Scale Discovery). […]\nFemale SJL/J mice were immunized intradermally at the base of the tail with 200 μl of emulsion containing 150 μg of peptide PLP 139-151 in 100 μl of PBS and 100 μl of CFA. […] Animals were evaluated daily for clinical signs using the same grading system as for the transgenic mice."}, "solLTαβ [2]": {"test_system": "solLTαβ", "experiment": "solLTαβ levels in serum of CIA mice (murine LTαβ ECLA)", "type": "in vivo, mouse (DBA-1J)", "details": "6 mg/kg s.c. three times weekly, treated for 11 days, FIG. 4A", "experimental": "Soluble mouse LTαβ was measured using streptavidin coated 96-Well Microtiter plates (Meso Scale Discovery). Wells were then blocked with 150 uL of PBS containing 5% bovine serum albumin for 1-2 hours. Twenty-five uL per well of 1 μg/ml murine LTβR-Fc-biotin (R&D Systems) diluted in PBS/0.05% Tween® was then incubated with the blocked plate for 30 minutes. The wells were washed 6× with PBS containing 0.05% Tween®-20 (PBS/Tween®) and a titration curve of recombinant mouse LTα1β2 (R&D Systems), controls and unknown test samples diluted in high salt assay diluent (PBS, 0.5% BSA, 0.05% Tween® 20, 10 ppm Proclin, 5 mM EDTA, 0.2% BGG, 0.25% CHAPS+3.5 mM NaCl pH 7.4) were added at 25 μl/well and incubated for 2 hours. The wells were washed 6× with PBS/Tween® and an anti-LTα monoclonal antibody (N3EV) (Genentech) labeled with SULFO-TAG® NHS (Meso Scale Discovery) was diluted to 3 ug/ml in assay diluent and added to the wells at 25 μl/well for 1 hour. The plate was washed with wash buffer 6× and 150 μl/well of Read Buffer T (Meso Scale Discovery) diluted 1:2 in H20 was added to the plate. The plate was immediately read on an MA6000 SECTOR™ Imager (Meso Scale Discovery). A weighted 4-parameter fit curve was plotted using XLFit (Guildford, UK) from the resulting standard curve values and unknown concentrations were extrapolated. […]"}},
  "data": [
    {"molecule": "muLTβR-Fc: recombinant murine LTβ receptor conjugated to an immunoglobulin Fc region (murine IgG2a Fc) (protein, left off: a dimerising Fc or GST) QLVPPYRIENQTCWDQDKEYYEPMHDVCCSRCPPGEFVFAVCSRSQDTVCKTCPHNSYNEHWNHLSTCQLCRPCDIVLGFEEVAPCTSDRKAECRCQPGMSCVYLDNECVHCEEERLVLCQPGTEAEVTDEIMDTDVNCVPCKPGHFQNTSSPRARCQPHTRCEIQGLVEAAPGTSYSDTICKNPPEPGAML", "values": [
      {"measurement": "solLTαβ levels in serum", "setting": "solLTαβ [1]", "value": "Elevated"},
      {"measurement": "solLTαβ levels in serum", "setting": "solLTαβ [2]", "value": "Elevated"}
    ]}
  ]
}
